Literature values, collected in paper PMC9697831.
Where two headings read alike, the source gives them in different places.

Key:
Kv1.3 (Homo sapiens) [1] = target: Kv1.3 (Homo sapiens) (UniProt P22001)
Kv1.3 (Homo sapiens) [2] = target: Kv1.3 (Homo sapiens) (UniProt P22001); remark: listed apart in the source

Sequence of Kv1.3 (Homo sapiens) (P22001 whole entry): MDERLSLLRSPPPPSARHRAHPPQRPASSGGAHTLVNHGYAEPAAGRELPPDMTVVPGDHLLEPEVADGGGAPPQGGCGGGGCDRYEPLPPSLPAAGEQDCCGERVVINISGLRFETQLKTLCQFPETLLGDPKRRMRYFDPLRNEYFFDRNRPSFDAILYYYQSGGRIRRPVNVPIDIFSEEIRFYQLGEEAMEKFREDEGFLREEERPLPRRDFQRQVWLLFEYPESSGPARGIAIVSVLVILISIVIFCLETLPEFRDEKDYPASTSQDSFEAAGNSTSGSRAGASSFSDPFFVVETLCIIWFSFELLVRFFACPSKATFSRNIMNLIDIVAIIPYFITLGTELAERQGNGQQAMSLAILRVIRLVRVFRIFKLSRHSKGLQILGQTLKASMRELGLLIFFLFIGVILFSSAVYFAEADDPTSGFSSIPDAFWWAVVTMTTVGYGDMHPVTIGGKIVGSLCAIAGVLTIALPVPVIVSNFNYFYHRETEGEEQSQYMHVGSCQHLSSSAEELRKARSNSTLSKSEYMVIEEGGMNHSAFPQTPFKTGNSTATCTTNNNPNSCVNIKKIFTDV
Sequence of Ts6 (P59936 23-62): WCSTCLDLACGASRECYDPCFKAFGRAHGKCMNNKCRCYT
Sequence of Anuroctoxin (P0C166 whole entry): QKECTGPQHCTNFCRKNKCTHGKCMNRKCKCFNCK

Substance: Anuroctoxin (from UniProt P0C166)
- Kd (Kv1.3 (Homo sapiens) [1]): 0.73 nM

Substance: Ts6 (from UniProt P59936)
- Kd (Kv1.3 (Homo sapiens) [2]): 0.55 nM
